Target: receptor CCR1 (UniProt P32246)
Test: cell-based or functional assay

Sequence of UniProt P32246 (P32246 whole entry): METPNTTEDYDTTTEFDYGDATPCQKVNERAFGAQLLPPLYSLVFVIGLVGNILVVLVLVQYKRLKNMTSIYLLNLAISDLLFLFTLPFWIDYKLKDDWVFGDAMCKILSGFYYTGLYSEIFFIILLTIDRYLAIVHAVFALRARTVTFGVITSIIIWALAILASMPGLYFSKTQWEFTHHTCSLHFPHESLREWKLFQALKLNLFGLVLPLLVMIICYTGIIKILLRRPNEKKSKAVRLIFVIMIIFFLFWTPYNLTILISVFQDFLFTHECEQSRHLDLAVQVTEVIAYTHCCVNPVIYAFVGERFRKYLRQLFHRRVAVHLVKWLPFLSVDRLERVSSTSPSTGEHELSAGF

reactivity of the CCR1 receptor (Tango CCR1-bla U20S reporter cells, Blue/Green Emission ratio): 0.63 nM
Substance: CCL3 (D27A, Δ1, CCL3α) (from UniProt P10147 24-92) (ligand)

From US20190153055A1
